The supplement of paper PMC9732359
± gives the uncertainty stated by the source.

Experiment: protein stability index of a GFP-peptide fusion (yeast GPS) (PSI 1-4); higher = more stable; sorted into four equal gates, so the index is relative within each strain
Method in brief: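 For each peptide, the protein stability index sums the read frequency in every gate after multiplying it by the gate number. Read frequencies came from plasmids that were PCR-amplified from each gate and Illumina-sequenced, with reads assigned to strains by barcodes. The gates were four equal bins of GFP/Cherry fluorescence ratio applied to mid-log yeast in leucine-free medium carrying a pooled library of tiled 17-residue yeast protein peptides fused downstream of GFP on a Cherry-expressing plasmid.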

| Sequence | protein stability index (doa10∆) | protein stability index (san1∆) | protein stability index (ubr1∆) | protein stability index (pdr5∆) |
| --- | --- | --- | --- | --- |
| PNIRELGVKNLGLCCLL [YCG1] | 2.91 ± 0.25 | 1.87 ± 0.21 | 1.46 ± 0.061 |  |
| LVAKLKKVKSASKKSGG [SMC4] | 2.4 ± 0.074 | 2.13 ± 0.12 | 2.45 ± 0.052 | 2.62 ± 0.085 |
| LIKDNSAMVTTAAAADI [SRB2] |  |  |  | 1.78 ± 0.29 |
| ARRLKNRAARDRRAQRV [RPL19A] | 2.97 ± 0.14 | 2.57 ± 0.13 | 3.17 ± 0.062 | 3.43 ± 0.1 |
| LLTCYELEKKYHGNECE [SRB8] | 2.71 ± 0.082 | 3.3 ± 0.068 | 3.21 ± 0.055 | 3 ± 0.061 |
| KEVASLPNKSTISKTVS [FAS2] | 3.09 ± 0.12 | 3 ± 0.08 | 3.21 ± 0.14 | 3.05 ± 0.12 |
| VHEWEVSKPSLLHETND [PRP8] | 3.25 ± 0.11 |  | 3.23 ± 0.072 | 3.05 ± 0.14 |
| QLFNWCLMRSLHKLELK [DSN1] | 1.17 ± 0.058 | 1.14 ± 0.13 | 1.19 ± 0.058 | 1.26 ± 0.059 |
| LEKKGFSEVYEYNRLKV [LIN1] | 3.34 ± 0.16 | 3.28 ± 0.1 | 3.22 ± 0.12 | 3.18 ± 0.25 |
| SGRCDGYILEGEELAFY [RPS8A] | 3.32 ± 0.12 | 3.29 ± 0.093 | 3.36 ± 0.074 | 3.44 ± 0.12 |
| ELAKEAKKSTTISKEST [ESC2] | 2.55 ± 0.13 | 2.63 ± 0.21 | 2.85 ± 0.063 | 2.47 ± 0.14 |
| VLKTLEYKLATYGVPGS [NUT1] | 2.75 ± 0.068 | 3.27 ± 0.045 | 2.18 ± 0.08 | 2.54 ± 0.066 |
| DQLIISSSANKLLQLFL [YML103C/NUP188] | 1.91 ± 0.063 | 1.89 ± 0.086 | 2.54 ± 0.055 | 2.17 ± 0.066 |
| TKGDSTPVQPDLSVTPQ [YAR002W/NUP60] | 3.22 ± 0.036 | 2.984 ± 0.028 | 3.098 ± 0.024 | 3.16 ± 0.036 |
| TEELSITGEKLDTQLND [SMC1] | 1.86 ± 0.068 | 2.29 ± 0.12 | 1.36 ± 0.034 | 2.41 ± 0.083 |
| MDHEEARRKHVSGKILG [RPS22A] | 2.83 ± 0.28 | 2.87 ± 0.24 | 3.02 ± 0.12 | 2.65 ± 0.24 |
| SKNELKKAFTSYDRTLL [RPS16A] | 2.76 ± 0.067 | 3.12 ± 0.07 | 2.91 ± 0.077 | 3.14 ± 0.057 |
| NISGEFFRNKLKYHDFL [RPL16B] | 2.35 ± 0.063 | 2.22 ± 0.067 | 1.79 ± 0.044 | 2.18 ± 0.068 |
| LISGKAGVLNGTLEYGT [RET1] | 2.83 ± 0.056 | 3.02 ± 0.063 | 2.99 ± 0.059 | 3.03 ± 0.062 |
| QLIFRQQTGLVDAITRC [SNU114] | 2.97 ± 0.087 | 3.04 ± 0.052 | 2.47 ± 0.041 | 2.69 ± 0.058 |
| MAPLSLNFKDDKKYKGL [REC8] | 2.66 ± 0.089 | 2.47 ± 0.065 | 2.47 ± 0.075 | 2.61 ± 0.14 |
| TKFFDDAKSTPLRLRLY [RPN9] | 3.26 ± 0.24 |  | 2.89 ± 0.17 | 3.02 ± 0.15 |
| ISEKDLVPKRCLFESLS [RPO31] | 2.59 ± 0.12 | 2.94 ± 0.16 | 3.03 ± 0.095 | 3.38 ± 0.15 |
| HVKIRATGGTRTKTPGP [RPS14B] | 1.38 ± 0.13 | 2.25 ± 0.25 |  | 1.84 ± 0.15 |
| SSLFQEKLLETNVSKQN [ECM29] | 2.74 ± 0.11 | 2.35 ± 0.065 | 2.52 ± 0.071 | 2.55 ± 0.1 |
| NDVTNKNINIGKHSQEQ [SIR4] | 2.26 ± 0.052 | 2.81 ± 0.045 | 2.5 ± 0.041 | 2.46 ± 0.047 |
| RLGDLGVIDDSFDVAIS [SMC4] | 2.85 ± 0.14 | 1.23 ± 0.25 | 1.98 ± 0.067 | 2 ± 0.14 |

| Sequence | protein stability index (doa10∆) | protein stability index (san1∆) | protein stability index (ubr1∆) | protein stability index (pdr5∆) |
| --- | --- | --- | --- | --- |
| LIKTLSTLHMLGYTHIA [RPP1] | 2.49 ± 0.081 | 2.62 ± 0.099 | 2.65 ± 0.071 | 2.65 ± 0.087 |
| GQSSVKHEDFVEGISEV [RPT5] | 3.7 ± 0.24 |  | 3.41 ± 0.2 |  |
| IVKTTTKQRLDAYYDLE [PRP8] | 2.77 ± 0.092 | 3.07 ± 0.05 | 3.19 ± 0.044 | 3.28 ± 0.069 |
| GSIPVDQVVVRGIDTLQ [RPB3] | 2.14 ± 0.06 | 1.89 ± 0.099 | 2.5 ± 0.048 | 2.02 ± 0.076 |
| VNKVPQNVAGDKTAVKL [SWP82] | 2.71 ± 0.16 | 2.8 ± 0.096 | 3.07 ± 0.071 | 3.04 ± 0.11 |
| SCISISDIISMLQISDD [RRI2] | 1.82 ± 0.083 | 1.19 ± 0.12 | 1.14 ± 0.04 | 1.34 ± 0.061 |
| GVARIYASFNDTFVHVT [RPS14B] | 1.64 ± 0.082 | 1.92 ± 0.077 | 2.05 ± 0.095 | 2 ± 0.085 |
| SQAFDIVAALPISEKGL [RPP1] | 2.85 ± 0.18 | 2.66 ± 0.18 | 2.66 ± 0.15 | 3.02 ± 0.2 |
| CRVCSSHTGLVRKYDLN [RPS29B] | 2.56 ± 0.058 | 2.38 ± 0.079 | 1.94 ± 0.047 | 2.33 ± 0.059 |
| KKASKVTVDADIDDILK [ISW2] | 2.75 ± 0.081 | 3 ± 0.058 | 3.1 ± 0.046 | 3.18 ± 0.065 |
| KTLHSQMMSKGIGALFT [RPC34] |  |  | 3.18 ± 0.21 |  |
| DKDNPVDSRNETDHKTN [SRB4] | 3.38 ± 0.14 | 2.88 ± 0.086 | 3.3 ± 0.18 | 2.85 ± 0.15 |
| FVLLEIEPVTKVSSLKM [YCS4] | 2.34 ± 0.049 | 2.48 ± 0.059 | 2.35 ± 0.054 | 2.18 ± 0.066 |
| LNPNEYFSVTTARRNVS [SWI3] | 1.64 ± 0.072 | 1.85 ± 0.14 | 2.19 ± 0.076 | 1.67 ± 0.082 |
| KTLTEEVTKSSHVENLE [YIL149C/MLP2] | 2.81 ± 0.053 | 2.86 ± 0.051 | 3.13 ± 0.035 | 2.94 ± 0.053 |
| LEAKRKVSSAEYYAKKR [RPL16A] | 3.06 ± 0.14 | 2.86 ± 0.11 | 3.35 ± 0.09 | 3.3 ± 0.11 |
| YSSYIYKVLKQTHPDTG [HTB1] | 2.58 ± 0.065 | 1.7 ± 0.074 | 1.81 ± 0.045 | 2.05 ± 0.051 |
| RPDGVHVINVGKTWEKL [RPS0A] | 3.33 ± 0.12 | 3.4 ± 0.13 | 3.04 ± 0.081 | 3.41 ± 0.15 |
| FLERKCVHMVYEYAEHD [SSN3] | 1.71 ± 0.061 | 1.69 ± 0.09 | 1.83 ± 0.046 | 1.67 ± 0.071 |
| YTANTSAQSIASAKSVR [YAR002W/NUP60] | 2.64 ± 0.088 | 2.65 ± 0.09 | 2.71 ± 0.12 | 2.93 ± 0.11 |
| KCGSVTVRLIPAPRGSG [RPS2] | 1.35 ± 0.11 | 1.4 ± 0.17 | 1.99 ± 0.1 | 2.07 ± 0.072 |
| KIGPLGLSPKKVGEDIA [RPL12A] | 3.3 ± 0.16 | 3.27 ± 0.2 | 3.38 ± 0.24 | 3.2 ± 0.18 |
| QLAGKSGEDTNVGLPIL [YOR098C/NUP1] | 2.86 ± 0.15 | 3.36 ± 0.062 | 3.25 ± 0.052 | 3.32 ± 0.084 |
| IESIRSCKDSQLKWAQN [YIL149C/MLP2] | 2.78 ± 0.064 | 2.75 ± 0.053 | 2.95 ± 0.053 | 3.01 ± 0.069 |
| HNMLNLLIHRKGLTYLH [PRP8] | 1.33 ± 0.08 | 1.6 ± 0.1 | 1.66 ± 0.049 | 1.45 ± 0.038 |
| VNRQSPLFFVDLKLLFN [RGR1] | 1.53 ± 0.065 | 1.29 ± 0.13 | 1.23 ± 0.11 | 1.54 ± 0.074 |
| GRNIGHPIIQDKEGNGV [RPB3] | 3.52 ± 0.17 | 3.04 ± 0.1 | 3.15 ± 0.13 | 3.24 ± 0.13 |
